Patent publication US20050090429 (published 2005)

B1: YS-1-86 (peptide)
chain: FCFWWKTFG
modifications: not fully specified; PTR 3207 core; 5-(aminothionyl)fluorescein-GABA conjugate; cyclic Cys* to GlyS2*; D-Phe1, D-Trp; C-terminal amide
B2: YS-1-76 (peptide)
chain: FGFWWKTFG
modifications: not fully specified; PTR 3219 core; fluorescein amide, aminohexanoic linker; cyclic GlyS2* to GlyS2*; D-Phe1, D-Trp; C-terminal amide
B3: YS-1-54 (peptide)
chain: GFWWKTFG
modifications: not fully specified; PTR 3213 core; fluorescein thiourea, no linker; cyclic GlyS2* to GlyS2*; D-Trp; C-terminal amide
B4: PTR 1007A-01 (peptide)
chain: XFWWKTFG
modifications: X = Dab; 5- and 6-carboxyfluorescein conjugate; backbone cyclic (Dab* to GlyC3*); D-Trp4; C-terminal GlyC3, amide
B5: YS-1-44 (peptide)
chain: GFWWKTFG
modifications: not fully specified; PTR 3213 core; fluorescein amide, betaAla linker; cyclic GlyS2* to GlyS2*; D-Trp; C-terminal amide
B6: YS-1-29 (peptide)
chain: XFWWKTFG
modifications: not fully specified; PTR 3173-NH2 core; X = GABA; fluorescein amide, aminopentanoic linker; backbone cyclic; D-Trp; C-terminal amide
B7: YS-1-68 (peptide)
chain: FGFWWKTFG
modifications: not fully specified; PTR 3219 core; 5- and 6-carboxyfluorescein-GABA conjugate; cyclic GlyS2* to GlyS2*; D-Phe1, D-Trp; C-terminal amide
B8: YS-1-62 (peptide)
chain: FGFWWKTFG
modifications: not fully specified; PTR 3219 core; 5-(aminothionyl)fluorescein-betaAla conjugate; cyclic GlyS2* to GlyS2*; D-Phe1, D-Trp; C-terminal amide
B9: YS-1-52 (peptide)
chain: GFWWKTFG
modifications: not fully specified; PTR 3213 core; fluorescein amide, aminopentanoic linker; cyclic GlyS2* to GlyS2*; D-Trp; C-terminal amide
B10: YS-1-58 (peptide)
chain: FGFWWKTFG
modifications: not fully specified; PTR 3219 core; fluorescein thiourea, Gly linker; cyclic GlyS2* to GlyS2*; D-Phe1, D-Trp; C-terminal amide
B11: YS-1-64 (peptide)
chain: FGFWWKTFG
modifications: not fully specified; PTR 3219 core; 5- and 6-carboxyfluorescein-betaAla conjugate; cyclic GlyS2* to GlyS2*; D-Phe1, D-Trp; C-terminal amide
B12: PTR 1017A-01 (peptide)
chain: KXFWWKTFG
modifications: not fully specified; 5- and 6-carboxyfluorescein-Lys; X = GABA; backbone cyclic (GABA* to GlyC3*); D-Trp; C-terminal amide
B13: YS-1-48 (peptide)
chain: GFWWKTFG
modifications: not fully specified; PTR 3213 core; 5- and 6-carboxyfluorescein-GABA conjugate; cyclic GlyS2* to GlyS2*; D-Trp; C-terminal amide
B14: YS-1-70 (peptide)
chain: FGFWWKTFG
modifications: not fully specified; PTR 3219 core; 5-(aminothionyl)fluorescein-aminopentanoyl conjugate; cyclic GlyS2* to GlyS2*; D-Phe1, D-Trp; C-terminal amide

What was measured:
human SST-R2 [1] = biological target: T1, human SST-R2 (human, UniProt P30874); test: competition, 125I-Tyr11-SRIF-14 radioligand
T1 sequence (P30874 whole entry): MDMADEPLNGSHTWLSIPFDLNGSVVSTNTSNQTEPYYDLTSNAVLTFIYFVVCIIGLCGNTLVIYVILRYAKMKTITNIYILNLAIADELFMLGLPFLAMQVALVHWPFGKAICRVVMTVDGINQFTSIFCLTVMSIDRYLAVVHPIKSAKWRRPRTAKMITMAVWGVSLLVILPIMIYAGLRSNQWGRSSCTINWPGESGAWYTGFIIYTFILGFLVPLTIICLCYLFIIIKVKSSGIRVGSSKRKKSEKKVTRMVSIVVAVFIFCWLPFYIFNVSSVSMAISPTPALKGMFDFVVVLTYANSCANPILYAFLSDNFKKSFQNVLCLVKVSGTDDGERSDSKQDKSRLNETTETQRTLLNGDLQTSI

human SST-R2 [2] = biological target: T1, human SST-R2; test: competition, SRIF-14 displacement

Binder	IC50 (human SST-R2 [1]) [nM]	IC50 (human SST-R2 [2]) [nM]
B1	1.7	
B2		13
B3		48
B4	78	
B5		19
B6		32
B7	5.7	
B8	3	
B9		9
B10		18
B11	3.9	
B12	13.2	
B13	5.4	
B14	2.9	
